In patent US6348327:
Changes are numbered by the printed parent chain.

B1: murine prohormone convertase 1 (protein)
chain: SVQKDSALDLFNDPMWNQQWYLQDTRMTAALPKLDLHVIPVWEKGITGKGVVITVLDDGLEWNHTDIYANYDPEASYDFNDNDHDPFPRYDLTNENKHGTRCAGEIAMQANNHKCGVGVAYNSKVGGIRMLDGIVTDAIEASSIGFNPGHVDIYSASWGPNDDGKTVEGPGRLAQKAFEYGVKQGRQGKGSIFVWASGNGGRQGDNCDCDGYTDSIYTISISSASQQGLSPWYAEKCSSTLATSYSSGDYTDQRITSADLHNDCTETHTGTSASAPLAAGIFALALEANPNLTWRDMQHLVVWTSEYDPLASNPGWKKNGAGLMVNSRFGFGLLNAKALVDLADPRTWRNVPEKKECVVKDNNFEPRALKANGEVIVEIPTRACEGQENAIKSLEHVQFEATIEYSRRGDLHVTLTSAVGTSTVLLAERERDTSPNGFKNWDFMSVHTWGENPVGTWTLKITDMSGRMQNEGRIVNWKLILHGTSSQPEHMKQPRVYTSYNTVQNDRRGVEKMVNVVEKRPTQKSLNGNLLVPKNSSSSNVEGRRDEQVQGTPSKAMLRLLQSAFSKNALSKQSPKKSPSAKLSIPYESFYEALEKLNKPSKLEGSEDSLYSDYVDVFYNTKPYKHRDDRLLQALMDILNEEN
B2: murine prohormone convertase 2 (protein)
chain: GYRDINEIDINMNDPLFTKQWYLFNTGQADGTPGLDLNVAEAWELGYTGKGVTIGIMDDGIDYLHPDLAYNYNADASYDFSSNDPYPYPRYTDDWFNSHGTRCAGEVSAAASNNICGVGVAYNSKVAGIRMLDQPFMTDIIEASSISHMPQLIDIYSASWGPTDNGKTVDGPRELTLQAMADGVNKGRGGKGSIYVWASGDGGSYDDCNCDGYASSMWTISINSAINDGRTALYDESCSSTLASTFSNGRKRNPEAGVATTDLYGNCTLRHSGTSAAAPEAAGVFALALEANLDLTWRDMQHLTVLTSKRNQLHDEVHQWRRNGVGLEFNHLFGYGVLDAGAMVKMAKDWKTVPERFHCVGGSVQNPEKIPPTGKLVLTLKTNACEGKENFVRYLEHVQAVITVNATRRGDLNINMTSPMGTKSILLSRRPRDDDSKVGFDKWPFMTTHTWGEDARGTWTLELGFVGSAPQKGLLKEWTLMLHGTQSAPYIDQVVRDYQSKLAMSKKQELEEELDEAVERSLQSILRKN

Key:
[1] = biological target: T1, prorelaxin mutant Rx 1.4, P04090
T1 chain: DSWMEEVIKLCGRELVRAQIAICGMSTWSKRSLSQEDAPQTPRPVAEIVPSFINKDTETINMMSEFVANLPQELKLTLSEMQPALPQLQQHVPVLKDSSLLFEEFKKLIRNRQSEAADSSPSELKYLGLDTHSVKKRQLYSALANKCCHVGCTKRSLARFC

[2] = biological target: T2, prorelaxin mutant Rx 2.4, P04090
T2 chain: T1 chain with V134R, K135A

[3] = biological target: T3, prorelaxin mutant Rx 3.2, P04090
T3 chain: T1 chain with V134R, K136A

[4] = biological target: T4, prorelaxin mutant Rx 4.3, P04090
T4 chain: T1 chain with V134R, K136R, R137A

[5] = biological target: T5, prorelaxin mutant Rx7.2, P04090
T5 chain: T1 chain with K30A, V134R

[6] = biological target: T6, prorelaxin mutant Rx8.6, P04090
T6 chain: T1 chain with R31A, V134R

[7] = biological target: T7, human H2 prorelaxin (wild-type), P04090
T7 chain: T1 chain with V134R

Row | Protein | processing of prorelaxin mutant by murine prohormone convertase 1 [1] | processing of prorelaxin mutant by murine prohormone convertase 1 [2] | processing of prorelaxin mutant by murine prohormone convertase 1 [3] | processing of prorelaxin mutant by murine prohormone convertase 1 [4] | processing of prorelaxin mutant by murine prohormone convertase 1 [5] | processing of prorelaxin mutant by murine prohormone convertase 1 [6] | cleavage of prorelaxin by murine prohormone convertase 2 [7] | cleavage of prorelaxin mutant by murine prohormone convertase 2 [1] | cleavage of prorelaxin mutant by murine prohormone convertase 2 [2] | cleavage of prorelaxin mutant by murine prohormone convertase 2 [3] | cleavage of prorelaxin mutant by murine prohormone convertase 2 [4] | cleavage of prorelaxin mutant by murine prohormone convertase 2 [5] | cleavage of prorelaxin mutant by murine prohormone convertase 2 [6]
1 | B1 | Mutants 1.4 and 2.4 are processed the same as wild-type | Mutants 1.4 and 2.4 are processed the same as wild-type | mutant 3.2 is partially processed | Mutant 4.3 doesn't appear to be processed | mutants 7.2 and 8.6 are not processed | mutants 7.2 and 8.6 are not processed |  |  |  |  |  |  | 
2 | B2 |  |  |  |  |  |  | Murine prohormone convertase 2 does not cleave the wildtype prorelaxin | does not cleave any of the prorelaxin mutants with the exception of 4.3 | does not cleave any of the prorelaxin mutants with the exception of 4.3 | does not cleave any of the prorelaxin mutants with the exception of 4.3 | with the exception of 4.3 where there is some processing | Mutant 7.2 is not cleaved by murine prohormone convertase 2 | does not cleave any of the prorelaxin mutants with the exception of 4.3
